The values below come from paper PMC9307627, “Targeting loop3 of sclerostin preserves its cardiovascular protective action and promotes bone formation”.

What all share (experiment): ELONA; ELONA: 160 ng protein coated in PBS; biotinylated aptamer 45 min at RT; wash in PBS pH 7.4, 1 mM MgCl2, 5 mM imidazole, 0.05% Tween 20; streptavidin-HRP/TMB, hyperbolic fit
For data set [1], the target named is full-length human sclerostin (FL hSOST) (human, UniProt Q9BQB4 25-213). The conditions noted are these: protein: recombinant; tags: His6; label: biotin.
Sequence of full-length human sclerostin (FL hSOST) (Q9BQB4 25-213): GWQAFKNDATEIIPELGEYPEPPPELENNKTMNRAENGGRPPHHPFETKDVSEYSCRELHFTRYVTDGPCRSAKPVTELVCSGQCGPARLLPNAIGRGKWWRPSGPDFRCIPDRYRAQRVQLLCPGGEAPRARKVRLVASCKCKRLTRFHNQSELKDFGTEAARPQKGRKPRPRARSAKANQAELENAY
Data set [2] addresses T1, sclerostin loop2 (human, UniProt Q9BQB4 110-133).
T1 chain: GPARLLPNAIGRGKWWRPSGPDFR
The conditions noted are these: label: biotin.

For data set [3], the target named is T2, sclerostin loop1 (human, UniProt Q9BQB4 81-104).
T2 chain: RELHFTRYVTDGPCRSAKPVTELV
The conditions noted are these: label: biotin.

The target in data set [4] is T3, sclerostin loop3 (WT) (human, UniProt Q9BQB4 135-164).
T3 chain: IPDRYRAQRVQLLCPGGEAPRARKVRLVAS
The conditions noted are these: label: biotin.

Data set [5] has as its target T4, sclerostin loop3m (human, UniProt Q9BQB4 135-164, R138A;Y139A;R140A;Q142A;R143A;V144A;G151A;E152A;R157A;K158A;V159A).
T4 chain: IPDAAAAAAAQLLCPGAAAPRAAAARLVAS
The conditions noted are these: label: biotin.

B1: aptamer candidate 51 (ssDNA)
DNA: TGGGGGTAGGGGGTCCTTGGCTACGGTGATTCGGATGTGA
Regarding B1, the Kd in data set [1] came out at 62.2 nM.

B2: aptamer candidate 46 (ssDNA)
DNA: GGGTGGATTAAGGGGGCCCCGTCTGTAGGCGATTGGCGAA
With B2, in data set [1], the dissociation constant Kd came to 45.6 nM.

B3: aptamer candidate 9 (ssDNA)
DNA: TGGGGGTAGGGGGACCCTGGCTAGTTAGTCACCGTTTCGA
Regarding B3, the Kd in data set [1] was found to be 3.4 nM.

B4: aptamer candidate 15 (ssDNA)
DNA: GAGGGGGCCAACTATGCTTAGTGGGGGGGTTGACCGTATC
As to B4, in data set [1], the Kd was 4 nM.

B5: aptscl56m (ssDNA)
DNA: CGGGGTGTGGGTAAATCGTTAGAAAGATTAAACAGCTGCC
As to B5, the binding result in data set [1] is listed as “no binding”.

B6: aptamer candidate 132 (ssDNA)
DNA: CCCAGACGAGACACCTCATGCTTTTCCCCGGGGGAGGGGTAT
For B6, the Kd in data set [1] is 42.2 nM.

B7: aptscl56 (ssDNA)
DNA: CGGGGTGTGGGTTCGTCGTTAGCTTGATTTGGCAGCTGCC
Turning to B7, the binding result in data set [2] is “no binding”; in data set [3], “no binding”; in data set [4], “binds”; in data set [5], “binds”. The Kd in data set [1] worked out at 43.1 nM.

B8: aptamer candidate 6 (ssDNA)
DNA: TGGAAGGGTGGGGGCGGGGGGTCCTCGCCTCGAACGTACG
Consider B8, for which the Kd in data set [1] is 4.2 nM.

The term Kd denotes a measure of binding affinity in units of concentration.
